Data taken from patent US6893638.

B1: monkey monoclonal anti-B7.1 antibody 7B6 (antibody, V domains shown)
VH: EVQLVESGGGLVQPGGSLRVSCAVSGFTFSDHYMYWFRQAPGKGPEWVGFIRNKPNGGTTEYAASVKDRFTISRDDSKSIAYLQMSSLKIEDTAVYYCTTSYISHCRGGVCYGGYFEFWGQGALVTVSS
VL: EVVMTQSPLSLPITPGEPASISCRSSQSLKHSNGDTFLSWYQQKPGQPPRLLIYKVSNRDSGVPDRFSGSGAGTDFTLKISAVEAEDVGVYFCGQGTRTPPTFGGGTKVEIK
notes: Tested as the original cynomolgus monkey Ig from a heterohybridoma
B2: monkey monoclonal anti-B7.1 antibody 16C10 (antibody, V domains shown)
VH: QVQLQESGPGLVKPSETLSLTCAVSGGSISGGYGWGWIRQPPGKGLEWIGSFYSSSGNTYYNPSLKSQVTISTDTSKNQFSLKLNSMTAADTAVYYCVRDRLFSVVGMVYNNWFDVWGPGVLVTVSS
VL: ESVLTQPPSVSGAPGQKVTISCTGSTSNIGGYDLHWYQQLPGTAPKLLIYDINKRPSGISDRFSGSKSGTAASLAITGLQTEDEADYYCQSYDSSLNAQVFGGGTRLTVL
notes: as for B1
B3: monkey monoclonal anti-B7.1 antibody 7C10 (antibody, V domains shown)
VH: QVKLQQWGEGLLQPSETLSRTCVVSGGSISGYYYWTWIRQTPGRGLEWIGHIYGNGATTNYNPSLKSRVTISKDTSKNQFFLNLNSVTDADTAVYYCARGPRPDCTTICYGGWVDVWGPGDLVTVSS
VL: AYELTQPPSVSVSPGQTARITCGGDNSRNEYVHWYQQKPARAPILVIYDDSDRPSGIPERFSGSKSGNTATLTINGVEAGDEADYYCQVWDRASDHPVFGGGTRVTVL
notes: Tested as the original cynomolgus monkey Ig from a heterohybridoma; A leader may be included in the entries; also called 7C10 monkey Ig

Molecular target: T1, B7.1/Ig fusion protein (human, UniProt P33681 35-242, 125I radiolabel where used as tracer)
T1 construct: Secreted from CHO cells; also called B7-Ig; not shown: human immunoglobulin CH2 and CH3 domains of the NEOSPLA cassette vector; isotype
T1 sequence (looked up): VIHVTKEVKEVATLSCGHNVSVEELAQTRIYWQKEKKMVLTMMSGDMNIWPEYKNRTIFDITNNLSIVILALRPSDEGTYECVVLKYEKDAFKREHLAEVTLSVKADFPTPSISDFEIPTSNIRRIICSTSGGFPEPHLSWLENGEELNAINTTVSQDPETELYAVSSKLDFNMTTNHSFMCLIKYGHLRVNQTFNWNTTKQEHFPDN
Assay: Scatchard analysis, binding to B7-Ig coated plates

Kd	Binder
~10.7 nM	B1
~8.1 nM	B2
~6.2 nM	B3

Molecular target: T2, membrane associated human B7.1 on cells (human, UniProt P33681 35-288)
T2 sequence (looked up): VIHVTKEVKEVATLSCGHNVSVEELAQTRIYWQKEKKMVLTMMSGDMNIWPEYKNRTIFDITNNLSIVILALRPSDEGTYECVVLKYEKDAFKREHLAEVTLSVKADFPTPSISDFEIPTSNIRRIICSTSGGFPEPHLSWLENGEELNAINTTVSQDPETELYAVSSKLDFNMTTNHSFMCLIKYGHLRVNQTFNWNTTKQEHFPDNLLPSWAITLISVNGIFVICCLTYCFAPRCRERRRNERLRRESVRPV
Assay: cell-based or functional assay

inhibit IL-2 production in mixed lymphocyte reaction	Binder
5 µg/mL	B1
0.1 µg/mL	B2
5 µg/mL	B3

Molecular target: T1, B7.1/Ig fusion protein
Assay: Scatchard analysis, binding to B7-Ig coated plates
Remark: another data set of the same source

Kd	Binder
~10.7 nM	B1
~8.1 nM	B2
~6.2 nM	B3
